For 28 sequences, protein stability index results are on record in the supplement of paper PMC10724198.

The series deals with Saccharomyces cerevisiae. In words: protein stability index of tFT-peptide fusion (C-terminal peptide) (PSI (0-1 scale)); higher = more stable (slower turnover). Conditions: temperature: 30 C. As for the experimental part:
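MPS profiling in S. cerevisiae of the yeast C-terminome library: the last 12 aa of each annotated ORF are fused to the C-terminus of a sfGFP-mCherry timer, after a GGGS linker. Cells are FACS-sorted into 8 mCherry/sfGFP bins and deep-sequenced. PSI runs from 0 (unstable) to 1 (stable); wild type and das1Δ backgrounds, two technical replicates each.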

[1] abbreviates: genetic background: das1 deletion.

± gives the standard deviation of the averaged measurements.

With ERTKLREKLEII [PXA1 C-terminal 12 aa], the protein stability index came out at 0.7064 ± 0.0059 under setting [1] and 0.677 ± 0.077 (genetic background: wild type).
With ESDLAAARSEDK [VTH1 C-terminal 12 aa], the protein stability index reads like this: under setting [1], 0.7237 ± 0.0031; (genetic background: wild type) 0.659 ± 0.012.
On the same counts, the results for ESEKELYNATRA [NHP6B C-terminal 12 aa] are 0.68817 ± 0.00058 and 0.716 ± 0.034.
On the same counts, the results for ESNSALDFTRLA [SSU1 C-terminal 12 aa] are 0.707 ± 0.025 and 0.712 ± 0.059.
ESQPAPKEAPDY [SNP1 C-terminal 12 aa]: the protein stability index under setting [1] is 0.674 ± 0.028 and the protein stability index (genetic background: wild type) was 0.702 ± 0.022.
The matching figures for ETLEAETVKIDI [POL31 C-terminal 12 aa]: 0.69571 ± 0.00029 and 0.7012 ± 0.0013.
The matching figures for EVDDDGEIEGLF [MIS1 C-terminal 12 aa]: 0.7072 ± 0.0051 and 0.684 ± 0.022.
With EVDIGLYNCADY [ADE4 C-terminal 12 aa], the protein stability index turned out to be 0.714 ± 0.05 under setting [1] and 0.667 ± 0.02 (genetic background: wild type).
EVISSYQIDMIV [HIM1 C-terminal 12 aa]: the protein stability index was determined as 0.657 ± 0.013 under setting [1] and 0.62 ± 0.0077 (genetic background: wild type).
On the same counts, the results for EVLHEWKSHINQ [BIO3 C-terminal 12 aa] are 0.743 ± 0.017 and 0.6763 ± 0.0056.
The matching figures for EVVRFYTIEAKL [AAT2 C-terminal 12 aa]: 0.771 ± 0.032 and 0.724 ± 0.085.
The matching figures for EWEEKQGMDFVR [GPN2 C-terminal 12 aa]: 0.7083 ± 0.0027 and 0.685 ± 0.0095.
Consider EYSWEKPKKLEF [SAM2 C-terminal 12 aa], for which the protein stability index worked out at 0.7075 ± 0.0037 under setting [1] and 0.698 ± 0.035 (genetic background: wild type).
The matching figures for FALVLAYMRLLT [FMP32 C-terminal 12 aa]: 0.4219 ± 0.0012 and 0.237 ± 0.012.
On the same counts, the results for FDELFISTEVEL [TCA17 C-terminal 12 aa] are 0.718 ± 0.018 and 0.6851 ± 0.0011.
On the same counts, the results for FDVIKECQTLSN [PUG1 C-terminal 12 aa] are 0.683 ± 0.037 and 0.6484 ± 0.0017.
For FELAKVSFDNKR [YKR104W C-terminal 12 aa], the protein stability index was found to be 0.736 ± 0.031 under setting [1] and 0.707 ± 0.095 (genetic background: wild type).
Take FERNYFPYSAVY [CLG1 C-terminal 12 aa]: the protein stability index runs as follows: under setting [1], 0.6077 ± 0.0039; (genetic background: wild type) 0.608 ± 0.018.
On the same counts, the results for FEYEPPKFNLSE [GTB1 C-terminal 12 aa] are 0.689 ± 0.025 and 0.659 ± 0.037.
The matching figures for FFSFIITIPFMV [YNL146W C-terminal 12 aa]: 0.305 ± 0.01 and 0.2042 ± 0.0015.
On the same counts, the results for FFTTCTIGCYDA [BUD7 C-terminal 12 aa] are 0.6871 ± 0.0048 and 0.6861 ± 0.0047.
As to FGKRRFFYRDLA [YPR146C C-terminal 12 aa], the protein stability index by setting is: under setting [1], 0.6901 ± 0.0029; (genetic background: wild type) 0.693 ± 0.014.
Regarding FHDWFIRQFVSN [SNO1 C-terminal 12 aa], the protein stability index runs as follows: under setting [1], 0.73 ± 0.0093; (genetic background: wild type) 0.321 ± 0.034.
Take FIWQNVLMWLMG [YIF1 C-terminal 12 aa]: the protein stability index under setting [1] was found to be 0.7 ± 0.011 and the protein stability index (genetic background: wild type) was 0.54 ± 0.017.
On the same counts, the results for FKKSYKGVSKNL [MGM1 C-terminal 12 aa] are 0.704 ± 0.013 and 0.695 ± 0.022.
The matching figures for FLGIELHAFFVS [YOL035C C-terminal 12 aa]: 0.6355 ± 0.0029 and 0.635 ± 0.058.
On the same counts, the results for “FLPFFLRFLCIN [YML116W-A C-terminal 12 aa]” are 0.618 ± 0.021 and 0.206 ± 0.021.
Turning to FQVVGKKKGKRF [SYH1 C-terminal 12 aa], the protein stability index by setting is: under setting [1], 0.715 ± 0.009; (genetic background: wild type) 0.688 ± 0.049.
